Test results: publication PMC12173945, “Import mechanism of peroxisomal proteins with an N-terminal signal sequence” (Nature Cell Biology, 2025)

B1: GST-tagged wild-type yeast PEX39 (GST–PEX39) [yeast] / yeast PEX7 [yeast (S. cerevisiae)] (parent complex)
chain 1: MAAGGELSYEELLDHILNNKPIPNIVEVPNVTLDEGLASTPSLRPRPRPWEGQLQHQSHQGSLDKPNISLDIDQESLEGMTSLTRLSECYDIQSKLQINDSDNDNDDNNNDNNKGDGNDDDNNTVTANPTAR
chain 2: MLRYHMQGFSGYGVQYSPFFDNRLAVAAGSNFGLVGNGKLFILEIDRSGRIVEVNSFLTQDCLFDLAWNESHENQVLVAQGDGTLRLFDTTFKEFPIAIFKEHEREVFSCNWNLVNRQNFLSSSWDGSIKIWSPLRKQSLMTLTPRPLEITKMVDPLNAIILKKKSFTGISKNRNCVYQAQFSPHDQNLVLSCSGNSYASLFDIRLPSGKNQNNFLVHSGLEALTCDFNKYRPYVVATGGVDNAIRIWDIRMLNKNESATIKRTVPGQLHNSSCINEIPNAHGLAIRKVTWSPHHSNILMSASYDMTCRIWRDLSNDGAKETYKTNSTDATKGSIFNFTQHSEFVFGADWSLWGKPGYVASTAWDGNLFVWNGLG

Variants of: B1
Assay: bead sedimentation (GST pull-down depletion) assay, SDS-PAGE with Coomassie quantification of PEX7 left in the supernatant; 1 µM yeast PEX7; varying GST-PEX39 concentrations; 1 h; 25 °C; parent: 0.6 nM

Variant	screen value [nM]
chain 1 Y9A, chain 1 L12A, chain 1 L13A, chain 1 I16A, chain 1 L17A	610
